In publication PMC8567202, “Phosphoinositide-binding activity of Smad2 is essential for its function in TGF-β signaling” (The Journal of Biological Chemistry, 2021):
Positions count from the first letter of the chain named. Names may count otherwise.

System: HeLa cells
Assay: TIRF imaging of PM localization of EGFP-Smad2
Type: cell-based
Conditions: for PM localization after TGF-β stimulation: HeLa cells with endogenous Smad2 suppressed
Experimental: Figure 4 Quantitative imaging analyses of spatiotemporal dynamics of Smad2.A, TIRF images of mouse EGFP-Smad2-WT transfected into HeLa cells whose endogenous Smad2 is suppressed by siRNA. Images were taken before and 5 min after TGF-β stimulation (10 ng/ml) with and without PI(4,5)P2 depletion. A pseudo-coloring scheme was used with orange and blue representing the highest and the lowest intensity, respectively. B, kinetics of TGF-β stimulated (10 ng/ml) PM localization of EGFP-Smad2-WT (blue), -K420A (green), and -W422A (orange) transfected into HeLa cells the endogenous Smad2 of which was suppressed by siRNA. For EGFP-Smad2-WT, the effect of PI(4,5)P2 depletion (black) and TβRI inhibition by SB-431542 (10 μM for 36 h) (red) were measured. Data points indicate average ±S.D. (n = 10 cells). C, spatially resolved PM PI(4,5)P2 concentration ([PI(4,5)P2]) profiles calculated from two-channel cross-sectional images of HeLa cells (before and 5 min after 10 ng/ml TGF-β stimulation and after PI(4,5)P2 depletion). Each cell is a representative of more than ten cells analyzed. Spatially averaged [PI(4,5)P2] values for each cell type are shown. The z-axis scale indicates [PI(4,5)P2] in mol%. A pseudo-coloring scheme with red and blue representing the highest (1.5 mol%) and the lowest (0 mol%) concentration, respectively, is used to illustrate the spatial [PI(4,5)P2] heterogeneity. Scale bars indicate 10 μm. D, dual color single-molecule tracking of EGFP-PLCδ-PH and SNAP-TMR-labeled TβRI at the PM of HeLa cells. Time courses of the half-life of colocalization for SNAP-TMR-labeled TβRI and EGFP-PLCδ-PH after 10 ng/ml TGF-β stimulation were determined with (orange) and without (blue) PI(4,5)P2 depletion. Data points indicate average ±S.D. (n = 10 cells). E, time courses of the half-life of colocalization for SNAP-TMR-labeled TβRI and EGFP-Smad2 determined by dual color single-molecule tracking analysis. Colocalization of TβRI with EGFP-Smad2-WT (blue), -K420A (green), -W422A (orange), E425K (red), Y426A (cyan), and -R427A/R428A (black) transfected into HeLa cells whose endogenous Smad2 was suppressed by siRNA is shown. For EGFP-Smad2-WT, the effect of PI(4,5)P2 depletion (purple) was measured. Data points indicate average ±S.D. (n = 10 cells). […] TEXT PRINTED IN THE PICTURE: (C) PI(4,5)P2: [PI(4,5)P2] = 1.05 ± 0.20 mol% (HeLa unstimulated); [PI(4,5)P2] = 1.00 ± 0.40 mol% (HeLa 5 min after TGFβ); [PI(4,5)P2] = 0.16 ± 0.08 mol% (HeLa After PI(4,5)P2 depletion) DOUBTS OF THE COPYIST ABOUT THIS PICTURE: Panel C: the printed values are measured membrane concentrations of PI(4,5)P2 in HeLa cells under three conditions, not an activity or property of a compound; it is uncertain whether they count as a result for a substance
Quantitative TIRF microscopy imaging of PM localization of EGFP tagged Smad2 WT and mutants was performed using custom-built internal reflection fluorescence microscope. WT HeLa cells or PI(4,5)P2 depleted HeLa cells were plated on the 8-well chambered cover glass (Lab-Tek, Thermo Fisher Scientific) at the density of 1 × 10^5 for 24 h. Endogenous Smad2 was suppressed using SiRNA and EGFP-Smad2 or mutants were transfected into cells using the jetPRIME system (Polyplus-transfection) according to the manufacturer's protocols. The transfected HeLa cells were serum starved for 16 h prior imaging. PM-bound EGFP-Smad2 fraction was monitored before and after stimulation with 10 ng/ml TGF-β up to 15 min. For EGFP-Smad2 WT, the effect of TβRI inhibition was monitored by incubating cells with 10 μM of SB-431542 for 36 h. Image analysis was performed using Image J software. Mean intensity of the EGFP-Smad2 signal was calculated for each time point, and final graph was plot by subtracting the mean intensity at 0 min from the mean intensity of each time point. More than ten cells were analyzed for each data point.

B1: Smad2-W422A: W422A mutant of full-length Smad2; specific PI(4,5)P2 binding-compromised (protein)
chain: MSSILPFTPPVVKRLLGWKKSAGGSGGAGGGEQNGQEEKWCEKAVKSLVKKLKKTGRLDELEKAITTQNCNTKCVTIPSTCSEIWGLSTANTVDQWDTTGLYSFSEQTRSLDGRLQVSHRKGLPHVIYCRLWRWPDLHSHHELKAIENCEYAFNLKKDEVCVNPYHYQRVETPVLPPVLVPRHTEILTELPPLDDYTHSIPENTNFPAGIEPQSNYIPETPPPGYISEDGETSDQQLNQSMDTGSPAELSPTTLSPVNHSLDLQPVTYSEPAFWCSIAYYELNQRVGETFHASQPSLTVDGFTDPSNSERFCLGLLSNVNRNATVEMTRRHIGRGVRLYYIGGEVFAECLSDSAIFVQSPNCNQRYGWHPATVCKIPPGCNLKIFNNQEFAALLAQSVNQGFEAVYQLTRMCTIRMSFVKGAGAEYRRQTVTSTPCWIELHLNGPLQWLDKVLTQMGSPSVRCSSMS
modifications: left off: His6, N-terminal, state not stated
PM localization after TGF-β stimulation (10 ng/ml TGF-β): little PM localization

B2: Smad2-K420A: K420A mutant of full-length Smad2; predominantly TβRI binding-compromised (protein)
chain: B1 chain with K420A, A422W
modifications: left off: His6, N-terminal, state not stated
PM localization after TGF-β stimulation (10 ng/ml TGF-β): able to migrate to the PM as fast as WT
PM residence / dissociation of Smad2 (HeLa cells, 10 ng/ml TGF-β, SB-431542 10 μM for 36 h where used): slow dissociation

B3: Smad2 WT: bacterially expressed full-length Smad2 wild-type (protein)
chain: B1 chain with A422W
modifications: left off: His6, N-terminal, state not stated
notes: bacterially expressed full-length Smad2 wild-type
time of peak PM translocation after TGF-β stimulation (HeLa cells, 10 ng/ml TGF-β): 5 min
PM translocation after PI(4,5)P2 depletion (HeLa cells, rapamycin-induced Inp54 recruitment): abrogated

B4: EGFP-Smad2 WT: mouse EGFP-Smad2 wild type transfected into HeLa cells (protein, UniProt Q62432 2-467, looked up)
Mothers against …: SSILPFTPPVVKRLLGWKKSAGGSGGAGGGEQNGQEEKWCEKAVKSLVKKLKKTGRLDELEKAITTQNCNTKCVTIPSTCSEIWGLSTANTVDQWDTTGLYSFSEQTRSLDGRLQVSHRKGLPHVIYCRLWRWPDLHSHHELKAIENCEYAFNLKKDEVCVNPYHYQRVETPVLPPVLVPRHTEILTELPPLDDYTHSIPENTNFPAGIEPQSNYIPETPPPGYISEDGETSDQQLNQSMDTGSPAELSPTTLSPVNHSLDLQPVTYSEPAFWCSIAYYELNQRVGETFHASQPSLTVDGFTDPSNSERFCLGLLSNVNRNATVEMTRRHIGRGVRLYYIGGEVFAECLSDSAIFVQSPNCNQRYGWHPATVCKIPPGCNLKIFNNQEFAALLAQSVNQGFEAVYQLTRMCTIRMSFVKGWGAEYRRQTVTSTPCWIELHLNGPLQWLDKVLTQMGSPSVRCSSMS
modifications: EGFP fusion
notes: mouse EGFP-Smad2 wild type transfected into HeLa cells
PM localization after TGF-β stimulation (10 ng/ml TGF-β): clearly visible
